This is an account of results in the supplement of paper PMC9428881.

± gives the standard error.

The data set can be described thus: background-corrected fluorescence of 3'-dye-labeled ssDNA relative to brightest sequence (3'-GCGCG) (fraction); higher = brighter dye fluorescence (less quenching). In short, it runs like this:
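Arrays of single-stranded DNA, with a 3' Cy3 or Cy5 dye beside each of 1024 permuted pentamers, were built on glass slides through light-directed phosphoramidite synthesis. They were washed for 2 h at r.t. in acetonitrile and scanned at 532 or 635 nm, once before and once after overnight ethylenediamine/ethanol deprotection. Fluorescence is reported after subtracting unlabeled-oligo background and normalizing to the brightest sequence. Averages cover 10 features per array and at least 3 syntheses.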

For “TTTTTTCATGATGCTGATGATTTTTTTTTTTTTTTGCACC [CCACG]”, the background-corrected fluorescence is 0.391 ± 0.024 (dye: Cy3 (3' terminal)) and 0.28 ± 0.022 (dye: Cy5 (3' terminal)).
Take “TTTTTTCATGCTGATGCTCATTTTTTTTTTTTTTTGACAG”: the background-corrected fluorescence is, setting by setting: (dye: Cy3 (3' terminal)) 0.547 ± 0.023; (dye: Cy5 (3' terminal)) 0.423 ± 0.036.
In the same order, the values of “TTTTTTGCTGATGCTGAGCATTTTTTTTTTTTTTTACACT [TCACA]” are 0.51 ± 0.018 and 0.35 ± 0.033.
In the same order, the values of “TTTTTTGATGAGCATGATCATTTTTTTTTTTTTTTCCTCG [GCTCC]” are 0.471 ± 0.02 and 0.393 ± 0.057.
In the same order, the values of “TTTTTTGCTCATGATGCTGATTTTTTTTTTTTTTTAGCAC [CACGA]” are 0.415 ± 0.019 and 0.328 ± 0.012.
In the case of “TTTTTGCATGCTGATGATGATTTTTTTTTTTTTTTTACCC [CCCAT]”, the background-corrected fluorescence reads like this: (dye: Cy3 (3' terminal)) 0.408 ± 0.012; (dye: Cy5 (3' terminal)) 0.276 ± 0.019.
In the same order, the values of “TTTTTTGCTGCTCATCATGATTTTTTTTTTTTTTTAAGGC [CGGAA]” are 0.6269 ± 0.0056 and 0.492 ± 0.038.
In the same order, the values of “TTTTTTGATGCTCATGAGCATTTTTTTTTTTTTTTCAGCT [TCGAC]” are 0.543 ± 0.022 and 0.418 ± 0.022.
In the same order, the values of “TTTTTTGATCATGCTGCGCATTTTTTTTTTTTTTTCGAAT [TAAGC]” are 0.599 ± 0.04 and 0.402 ± 0.026.
Turning to “TTTTTTGCTGCTCATGCTGATTTTTTTTTTTTTTTAAGAC [CAGAA]”, the background-corrected fluorescence reads like this: (dye: Cy3 (3' terminal)) 0.485 ± 0.015; (dye: Cy5 (3' terminal)) 0.363 ± 0.018.
Turning to “TTTTTTGATGAGCATCATGATTTTTTTTTTTTTTTCCTGC [CGTCC]”, the background-corrected fluorescence (dye: Cy3 (3' terminal)) amounted to 0.485 ± 0.028 and the background-corrected fluorescence (dye: Cy5 (3' terminal)) was 0.394 ± 0.032.
In the same order, the values of “TTTTTTGCGCATCATCATGCTTTTTTTTTTTTTTTATGGA [AGGTA]” are 0.712 ± 0.02 and 0.599 ± 0.041.
In the same order, the values of “TTTTTTCATGATCATGATGCTTTTTTTTTTTTTTTGCGCA [ACGCG]” are 0.714 ± 0.027 and 0.657 ± 0.043.
Regarding “TTTTTTCATCATGATCATCATTTTTTTTTTTTTTTGGCGG”, the background-corrected fluorescence was 0.649 ± 0.014 (dye: Cy3 (3' terminal)) and 0.604 ± 0.054 (dye: Cy5 (3' terminal)).
In the same order, the values of “TTTTTTCATCAGCAGCATGCTTTTTTTTTTTTTTTGGTTA [ATTGG]” are 0.53 ± 0.015 and 0.446 ± 0.071.
In the same order, the values of “TTTTTTGCTGATCATCAGCATTTTTTTTTTTTTTTACGGT [TGGCA]” are 0.664 ± 0.018 and 0.565 ± 0.045.
For the sequence “TTTTTTCATCATGATCAGCATTTTTTTTTTTTTTTGGCGT [TGCGG]”, the background-corrected fluorescence runs as follows: (dye: Cy3 (3' terminal)) 0.643 ± 0.035; (dye: Cy5 (3' terminal)) 0.558 ± 0.057.
In the same order, the values of “TTTTTTGATCAGCATGCGCATTTTTTTTTTTTTTTCGTAT [TATGC]” are 0.555 ± 0.018 and 0.401 ± 0.064.
Regarding “TTTTTTGATGATGCTGAGCATTTTTTTTTTTTTTTCCACT [TCACC]”, the background-corrected fluorescence runs as follows: (dye: Cy3 (3' terminal)) 0.444 ± 0.029; (dye: Cy5 (3' terminal)) 0.322 ± 0.023.
In the same order, the values of “TTTTTGCAGCATGAGCAGCATTTTTTTTTTTTTTTTTCTT” are 0.481 ± 0.015 and 0.348 ± 0.026.
In the same order, the values of “TTTTTGCATCAGCATGCGCATTTTTTTTTTTTTTTTGTAT [TATGT]” are 0.53 ± 0.024 and 0.418 ± 0.031.
In the same order, the values of “TTTTTTCATGATGATGCGCATTTTTTTTTTTTTTTGCCAT [TACCG]” are 0.516 ± 0.048 and 0.404 ± 0.029.
Consider “TTTTTTCATGCTCAGCATGATTTTTTTTTTTTTTTGAGTC [CTGAG]”, for which the background-corrected fluorescence was 0.469 ± 0.015 (dye: Cy3 (3' terminal)) and 0.359 ± 0.017 (dye: Cy5 (3' terminal)).
In the same order, the values of “TTTTTTGAGCAGCAGCATCATTTTTTTTTTTTTTTCTTTG [GTTTC]” are 0.498 ± 0.024 and 0.343 ± 0.027.
In the same order, the values of “TTTTTTGAGCAGCAGCATGATTTTTTTTTTTTTTTCTTTC” are 0.389 ± 0.014 and 0.297 ± 0.05.
In the same order, the values of “TTTTTTGCTGCGCATCATGATTTTTTTTTTTTTTTAATGC [CGTAA]” are 0.515 ± 0.016 and 0.4 ± 0.035.
As to “TTTTTTCATGAGCAGCATGATTTTTTTTTTTTTTTGCTTC [CTTCG]”, the background-corrected fluorescence is, setting by setting: (dye: Cy3 (3' terminal)) 0.388 ± 0.041; (dye: Cy5 (3' terminal)) 0.285 ± 0.024.
In the same order, the values of “TTTTTTGATGATCATGCGCATTTTTTTTTTTTTTTCCGAT [TAGCC]” are 0.603 ± 0.04 and 0.435 ± 0.022.
In the same order, the values of “TTTTTTGAGCATCATGCGCATTTTTTTTTTTTTTTCTGAT [TAGTC]” are 0.59 ± 0.02 and 0.455 ± 0.036.
